From patent US20160031944A1 (PROTAGONIST THERAPEUTICS, published 2016)

How the values were obtained:
[1] = target: T1, rh integrin α4β7 (R&D Systems #5397-A30) (human, UniProt P13612 34-977; P26010 20-723); assay: α4β7-MAdCAM competition ELISA
T1 construct: bought; coated on a nickel coated plate at 800 ng/well; also called A4B7
Experimental: A nickel coated plate (Pierce #15442) was coated with rh integrin α4β7 (R&D Systems #5397-A30) at 800 ng/well and incubated at room temperature with shaking for 1 hr. The solution was then removed by shaking and blocked with assay buffer (50 mM Tris-HCl pH7.6, 150 mM NaCl, 1 mM MnCl₂ or MgCl₂, 0.05% Tween-20 and 0.5% BSA) at 250 ul/well. The plate was then incubated at room temperature for 1 hr. Each well was washed 3 times with wash buffer (50 mM Tris-HCl pH7.6, 100 mM NaCl, 1 mM MnCl₂ or MgCl₂, 0.05% Tween-20). To each well was added 25 ul of a serial dilution (3-fold dilutions in assay buffer) of peptides starting at 20 μM. 25 ul of recombinant human MAdCAM-1 (R&D Systems #6056-MC) was then added to each well at a fixed concentration 20 nM. The final starting peptide concentration was 10 μM, and the final MAdCAM-1 concentration was 10 nM. The plates were then incubated at room temperature for 1 hr to reach binding equilibrium. The wells were then washed three times with wash buffer. 50 ul of mouse anti-human IgG1-HRP (Invitrogen #A10648) diluted in 1:2000 in assay buffer was then added to each well. The wells were incubated at room temperature for 45 min with shaking. The wells were then washed 3 times with wash buffer. 100 ul of TMB were then added to each well and closely observe during development time. The reaction was stopped with 2N H₂SO₄ and absorbance was read at 450 nm.

[2] = target: T2, α4β1 (R&D Systems #5668-A4) (UniProt P13612 34-977; P05556 21-728); assay: α4β1-VCAM competition ELISA
T2 construct: bought; printed as αβ1; detected with mouse anti-human CD49d antibody 9F10; also called αβ1; A4B1
Experimental: The solution was removed by shaking and then blocked with 250 ul of 1% BSA in 1×PBS per well. The wells were then incubated at room temperature for 1 hr with shaking. Each well was then washed once with wash buffer (50 mM Tris-HCl pH7.6, 100 mM NaCL, 1 mM MnCl₂ or MgCl₂, 0.05% Tween-20). 25 ul of serial dilutions of peptides starting at 200 μM in assay buffer (Assay buffer: 50 mM Tris-HCl pH7.6, 100 mM NaCl, 1 mM MnCl₂ or MgCl₂, 0.05% Tween-20) was added to each well. […] The final peptide and αβ1 concentrations were 100 μM and 60 nM, respectively. The plates were then incubated at 37° C. for 2 hr. The solution was then removed by shaking and each well was washed three times with wash buffer. 50 ul of 9F10 antibody at 4 ug/ml (purified mouse anti-human CD49d, BD Bioscience Cat#555502) was then added to each well, and the plate was incubated at room temperature for 1 hr with shaking. The solution was again removed by shaking, and each well was washed three times with wash buffer. 50 ul of peroxidase-conjugated AffiniPure Goat anti-mouse IgG (Jackson immune research cat #115-035-003) diluted in 1:5000 in assay buffer was added to each well. The plate was incubated at room temperature for 30 min with shaking. Each well was then washed 3 times with wash buffer. […] The reaction was stepped with 2N H₂SO₄ and absorbance was read at 450 nm.

T1 sequence (P13612 34-977 limits assumed, chain 1 of 2): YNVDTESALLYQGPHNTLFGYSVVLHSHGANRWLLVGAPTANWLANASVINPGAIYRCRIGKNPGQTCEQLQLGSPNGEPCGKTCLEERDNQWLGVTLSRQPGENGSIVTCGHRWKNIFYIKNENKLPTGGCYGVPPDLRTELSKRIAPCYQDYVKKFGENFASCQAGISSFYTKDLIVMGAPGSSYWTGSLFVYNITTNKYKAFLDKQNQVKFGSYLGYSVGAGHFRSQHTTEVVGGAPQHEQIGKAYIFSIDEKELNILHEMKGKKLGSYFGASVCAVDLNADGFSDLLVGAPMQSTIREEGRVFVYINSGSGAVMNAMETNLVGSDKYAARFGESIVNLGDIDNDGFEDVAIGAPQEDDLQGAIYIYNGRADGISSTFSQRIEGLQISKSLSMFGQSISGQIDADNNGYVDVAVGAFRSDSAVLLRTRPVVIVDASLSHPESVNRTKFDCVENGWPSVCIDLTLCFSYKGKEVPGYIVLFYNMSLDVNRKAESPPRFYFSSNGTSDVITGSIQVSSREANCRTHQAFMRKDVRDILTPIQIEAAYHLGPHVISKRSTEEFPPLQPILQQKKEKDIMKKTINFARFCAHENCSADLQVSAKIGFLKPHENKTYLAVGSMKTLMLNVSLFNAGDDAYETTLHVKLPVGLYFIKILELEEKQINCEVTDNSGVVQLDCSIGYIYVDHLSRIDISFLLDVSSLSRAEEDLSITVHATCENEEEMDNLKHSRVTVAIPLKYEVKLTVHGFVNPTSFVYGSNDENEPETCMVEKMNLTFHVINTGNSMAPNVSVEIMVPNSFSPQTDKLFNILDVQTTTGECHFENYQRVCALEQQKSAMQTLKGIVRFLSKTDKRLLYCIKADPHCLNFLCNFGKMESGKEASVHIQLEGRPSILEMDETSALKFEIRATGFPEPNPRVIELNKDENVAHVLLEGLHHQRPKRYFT
T1 sequence (P26010 20-723 limits assumed, chain 2 of 2): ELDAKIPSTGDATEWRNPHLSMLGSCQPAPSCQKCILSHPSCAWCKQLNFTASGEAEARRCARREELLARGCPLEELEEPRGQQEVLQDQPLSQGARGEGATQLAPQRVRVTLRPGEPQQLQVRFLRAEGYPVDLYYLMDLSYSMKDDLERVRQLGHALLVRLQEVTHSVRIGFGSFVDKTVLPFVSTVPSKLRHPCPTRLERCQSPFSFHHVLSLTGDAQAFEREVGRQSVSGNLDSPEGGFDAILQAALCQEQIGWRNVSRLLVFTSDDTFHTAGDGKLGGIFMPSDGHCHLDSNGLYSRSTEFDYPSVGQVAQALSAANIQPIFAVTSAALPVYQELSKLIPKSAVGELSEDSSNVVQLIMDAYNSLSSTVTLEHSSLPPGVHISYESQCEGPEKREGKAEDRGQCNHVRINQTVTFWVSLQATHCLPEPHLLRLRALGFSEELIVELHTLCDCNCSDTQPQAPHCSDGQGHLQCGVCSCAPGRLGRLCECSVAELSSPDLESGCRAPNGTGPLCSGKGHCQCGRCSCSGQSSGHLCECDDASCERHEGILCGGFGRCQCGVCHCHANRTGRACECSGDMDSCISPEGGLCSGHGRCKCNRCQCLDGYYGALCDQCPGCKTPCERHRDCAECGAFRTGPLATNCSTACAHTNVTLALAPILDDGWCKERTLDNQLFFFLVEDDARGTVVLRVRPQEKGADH
T2 sequence (P13612 34-977 limits assumed, chain 1 of 2): as the sequence (P13612 34-977 limits assumed, chain 1 of 2) above
T2 sequence (P05556 21-728 limits assumed, chain 2 of 2): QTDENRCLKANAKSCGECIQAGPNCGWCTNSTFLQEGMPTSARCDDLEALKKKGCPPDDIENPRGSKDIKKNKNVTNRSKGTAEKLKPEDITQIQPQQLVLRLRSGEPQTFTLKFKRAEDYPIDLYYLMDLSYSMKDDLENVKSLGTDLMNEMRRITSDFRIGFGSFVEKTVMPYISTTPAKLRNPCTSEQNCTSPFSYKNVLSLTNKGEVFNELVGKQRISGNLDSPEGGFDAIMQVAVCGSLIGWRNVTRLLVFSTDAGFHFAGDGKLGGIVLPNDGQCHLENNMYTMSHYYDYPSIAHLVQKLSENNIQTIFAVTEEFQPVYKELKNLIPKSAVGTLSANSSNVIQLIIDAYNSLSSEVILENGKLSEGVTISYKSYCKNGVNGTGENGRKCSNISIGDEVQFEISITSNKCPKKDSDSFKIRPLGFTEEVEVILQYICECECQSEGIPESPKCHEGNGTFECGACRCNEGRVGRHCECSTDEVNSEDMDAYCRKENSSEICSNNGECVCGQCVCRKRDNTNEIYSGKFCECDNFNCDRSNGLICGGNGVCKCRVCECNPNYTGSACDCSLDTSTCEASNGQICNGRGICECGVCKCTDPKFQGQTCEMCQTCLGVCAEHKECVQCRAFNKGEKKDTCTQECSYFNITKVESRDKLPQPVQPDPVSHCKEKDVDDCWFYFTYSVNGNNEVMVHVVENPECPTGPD

## Ac-CRSDTLCGE-NH2 (also: cyclised, mode not given here, also called control peptide) [SEQ ID NO 385]
[1]
  IC50: 0.097 µM
[2]
  IC50: 2.02 µM
